Publication PMC10786891, “Massively parallel profiling of RNA-targeting CRISPR-Cas13d”

T1: EsCas13d, nuclease-dead (Eubacterium siraeum, UniProt B0MS50, R295A;H300A;R849A;H854A)
T1 sequence: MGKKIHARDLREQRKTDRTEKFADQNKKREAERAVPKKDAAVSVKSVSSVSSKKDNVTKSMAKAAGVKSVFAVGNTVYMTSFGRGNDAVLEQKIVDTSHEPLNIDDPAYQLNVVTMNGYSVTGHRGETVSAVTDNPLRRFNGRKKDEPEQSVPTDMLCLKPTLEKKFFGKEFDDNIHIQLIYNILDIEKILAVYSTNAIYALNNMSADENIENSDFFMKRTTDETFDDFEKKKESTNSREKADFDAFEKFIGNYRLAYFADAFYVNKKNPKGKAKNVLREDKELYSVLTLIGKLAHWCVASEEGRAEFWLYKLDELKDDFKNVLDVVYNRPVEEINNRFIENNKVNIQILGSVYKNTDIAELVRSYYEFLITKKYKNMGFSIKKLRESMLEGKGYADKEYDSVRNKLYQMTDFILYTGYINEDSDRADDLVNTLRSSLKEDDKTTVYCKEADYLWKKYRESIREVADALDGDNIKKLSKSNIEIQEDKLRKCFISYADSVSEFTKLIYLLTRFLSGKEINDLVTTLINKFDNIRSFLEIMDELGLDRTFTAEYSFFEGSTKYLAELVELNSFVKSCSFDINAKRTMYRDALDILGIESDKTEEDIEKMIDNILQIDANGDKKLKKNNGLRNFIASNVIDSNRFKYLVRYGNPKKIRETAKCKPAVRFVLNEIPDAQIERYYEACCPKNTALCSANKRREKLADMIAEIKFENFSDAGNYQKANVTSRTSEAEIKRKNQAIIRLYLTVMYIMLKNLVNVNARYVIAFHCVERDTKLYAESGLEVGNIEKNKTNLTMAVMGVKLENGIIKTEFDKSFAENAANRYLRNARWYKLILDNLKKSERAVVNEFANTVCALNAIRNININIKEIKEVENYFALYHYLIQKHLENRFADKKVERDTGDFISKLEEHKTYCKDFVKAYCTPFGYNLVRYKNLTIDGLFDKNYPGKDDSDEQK

B1: target 1 G12C,G15A (mixed)
RNA 1: CACCCGUGCAAAAAUGCAGGGGUCUAAAACUGAGCGGAUAACCUCUCUAUGG
RNA 2: GGGAAUGGAUCCACAUCUACGAAUUCGUACCAUAGAAAGCUUAUCCGCUCACCGAGAUCGGAAGAGCACACGU
B2: target 1 insA 3' of 12,insC 3' of 3 (mixed)
RNA 1: CACCCGUGCAAAAAUGCAGGGGUCUAAAACUGAGCGGAUAACCUCUCUAUGG
RNA 2: GGGAAUGGAUCCACAUCUACGAAUUCGUACCAUAGAGAGGAUUAUCCGCUCCACCGAGAUCGGAAGAGCACACGU
B3: target 2 MT 5'PFS UAC 3'PFS CAU (mixed)
RNA 1: CACCCGUGCAAAAUUGCAGGGGUCUAAAACCUUCUCCAAAUUGUUUCAUCCU
RNA 2: GGGAAUGGAUCCACAUCUACGAAUUCUACAGGAUGAAACAAUUUGGAGAAGCAUAGAUCGGAAGAGCACACGU
B4: target 2 MT 5'PFS AAC 3'PFS AAU (mixed)
RNA 1: CACCCGUGCAAAAUUGCAGGGGUCUAAAACCUUCUCCAAAUUGUUUCAUCCU
RNA 2: GGGAAUGGAUCCACAUCUACGAAUUCAACAGGAUGAAACAAUUUGGAGAAGAAUAGAUCGGAAGAGCACACGU
B5: target 2 MT 5'PFS UAC 3'PFS ACA (mixed)
RNA 1: CACCCGUGCAAAAUUGCAGGGGUCUAAAACCUUCUCCAAAUUGUUUCAUCCU
RNA 2: GGGAAUGGAUCCACAUCUACGAAUUCUACAGGAUGAAACAAUUUGGAGAAGACAAGAUCGGAAGAGCACACGU
B6: target 2 MT 5'PFS UCG 3'PFS CGG (mixed)
RNA 1: CACCCGUGCAAAAUUGCAGGGGUCUAAAACCUUCUCCAAAUUGUUUCAUCCU
RNA 2: GGGAAUGGAUCCACAUCUACGAAUUCUCGAGGAUGAAACAAUUUGGAGAAGCGGAGAUCGGAAGAGCACACGU
B7: target 2 MT 5'PFS GGC 3'PFS UAU (mixed)
RNA 1: CACCCGUGCAAAAUUGCAGGGGUCUAAAACCUUCUCCAAAUUGUUUCAUCCU
RNA 2: GGGAAUGGAUCCACAUCUACGAAUUCGGCAGGAUGAAACAAUUUGGAGAAGUAUAGAUCGGAAGAGCACACGU
B8: target 2 MT 5'PFS UAC 3'PFS ACG (mixed)
RNA 1: CACCCGUGCAAAAUUGCAGGGGUCUAAAACCUUCUCCAAAUUGUUUCAUCCU
RNA 2: GGGAAUGGAUCCACAUCUACGAAUUCUACAGGAUGAAACAAUUUGGAGAAGACGAGAUCGGAAGAGCACACGU
B9: target 2 MT 5'PFS GCG 3'PFS CCG (mixed)
RNA 1: CACCCGUGCAAAAUUGCAGGGGUCUAAAACCUUCUCCAAAUUGUUUCAUCCU
RNA 2: GGGAAUGGAUCCACAUCUACGAAUUCGCGAGGAUGAAACAAUUUGGAGAAGCCGAGAUCGGAAGAGCACACGU
B10: target 2 MT 5'PFS GUU 3'PFS CGC (mixed)
RNA 1: CACCCGUGCAAAAUUGCAGGGGUCUAAAACCUUCUCCAAAUUGUUUCAUCCU
RNA 2: GGGAAUGGAUCCACAUCUACGAAUUCGUUAGGAUGAAACAAUUUGGAGAAGCGCAGAUCGGAAGAGCACACGU
B11: target 2 MT 5'PFS GUU 3'PFS CGU (mixed)
RNA 1: CACCCGUGCAAAAUUGCAGGGGUCUAAAACCUUCUCCAAAUUGUUUCAUCCU
RNA 2: GGGAAUGGAUCCACAUCUACGAAUUCGUUAGGAUGAAACAAUUUGGAGAAGCGUAGAUCGGAAGAGCACACGU
B12: target 2 MT 5'PFS UCG 3'PFS CGC (mixed)
RNA 1: CACCCGUGCAAAAUUGCAGGGGUCUAAAACCUUCUCCAAAUUGUUUCAUCCU
RNA 2: GGGAAUGGAUCCACAUCUACGAAUUCUCGAGGAUGAAACAAUUUGGAGAAGCGCAGAUCGGAAGAGCACACGU
B13: target 2 MT 5'PFS AAC 3'PFS AAC (mixed)
RNA 1: CACCCGUGCAAAAUUGCAGGGGUCUAAAACCUUCUCCAAAUUGUUUCAUCCU
RNA 2: GGGAAUGGAUCCACAUCUACGAAUUCAACAGGAUGAAACAAUUUGGAGAAGAACAGAUCGGAAGAGCACACGU
B14: target 2 MT 5'PFS UAC 3'PFS ACC (mixed)
RNA 1: CACCCGUGCAAAAUUGCAGGGGUCUAAAACCUUCUCCAAAUUGUUUCAUCCU
RNA 2: GGGAAUGGAUCCACAUCUACGAAUUCUACAGGAUGAAACAAUUUGGAGAAGACCAGAUCGGAAGAGCACACGU
B15: target 2 MT 5'PFS AAG 3'PFS UCG (mixed)
RNA 1: CACCCGUGCAAAAUUGCAGGGGUCUAAAACCUUCUCCAAAUUGUUUCAUCCU
RNA 2: GGGAAUGGAUCCACAUCUACGAAUUCAAGAGGAUGAAACAAUUUGGAGAAGUCGAGAUCGGAAGAGCACACGU
B16: target 2 MT 5'PFS AAU 3'PFS AGA (mixed)
RNA 1: CACCCGUGCAAAAUUGCAGGGGUCUAAAACCUUCUCCAAAUUGUUUCAUCCU
RNA 2: GGGAAUGGAUCCACAUCUACGAAUUCAAUAGGAUGAAACAAUUUGGAGAAGAGAAGAUCGGAAGAGCACACGU
B17: target 2 MT 5'PFS AUU 3'PFS CCA (mixed)
RNA 1: CACCCGUGCAAAAUUGCAGGGGUCUAAAACCUUCUCCAAAUUGUUUCAUCCU
RNA 2: GGGAAUGGAUCCACAUCUACGAAUUCAUUAGGAUGAAACAAUUUGGAGAAGCCAAGAUCGGAAGAGCACACGU
B18: target 2 MT 5'PFS AUU 3'PFS CCG (mixed)
RNA 1: CACCCGUGCAAAAUUGCAGGGGUCUAAAACCUUCUCCAAAUUGUUUCAUCCU
RNA 2: GGGAAUGGAUCCACAUCUACGAAUUCAUUAGGAUGAAACAAUUUGGAGAAGCCGAGAUCGGAAGAGCACACGU
B19: target 2 MT 5'PFS AAA 3'PFS ACG (mixed)
RNA 1: CACCCGUGCAAAAUUGCAGGGGUCUAAAACCUUCUCCAAAUUGUUUCAUCCU
RNA 2: GGGAAUGGAUCCACAUCUACGAAUUCAAAAGGAUGAAACAAUUUGGAGAAGACGAGAUCGGAAGAGCACACGU
B20: target 2 MT 5'PFS AUC 3'PFS AUG (mixed)
RNA 1: CACCCGUGCAAAAUUGCAGGGGUCUAAAACCUUCUCCAAAUUGUUUCAUCCU
RNA 2: GGGAAUGGAUCCACAUCUACGAAUUCAUCAGGAUGAAACAAUUUGGAGAAGAUGAGAUCGGAAGAGCACACGU
B21: target 2 MT 5'PFS ACA 3'PFS UGU (mixed)
RNA 1: CACCCGUGCAAAAUUGCAGGGGUCUAAAACCUUCUCCAAAUUGUUUCAUCCU
RNA 2: GGGAAUGGAUCCACAUCUACGAAUUCACAAGGAUGAAACAAUUUGGAGAAGUGUAGAUCGGAAGAGCACACGU
B22: target 2 MT 5'PFS UCA 3'PFS UCC (mixed)
RNA 1: CACCCGUGCAAAAUUGCAGGGGUCUAAAACCUUCUCCAAAUUGUUUCAUCCU
RNA 2: GGGAAUGGAUCCACAUCUACGAAUUCUCAAGGAUGAAACAAUUUGGAGAAGUCCAGAUCGGAAGAGCACACGU
B23: target 2 MT 5'PFS ACA 3'PFS UGA (mixed)
RNA 1: CACCCGUGCAAAAUUGCAGGGGUCUAAAACCUUCUCCAAAUUGUUUCAUCCU
RNA 2: GGGAAUGGAUCCACAUCUACGAAUUCACAAGGAUGAAACAAUUUGGAGAAGUGAAGAUCGGAAGAGCACACGU
B24: target 2 MT 5'PFS GUU 3'PFS CGA (mixed)
RNA 1: CACCCGUGCAAAAUUGCAGGGGUCUAAAACCUUCUCCAAAUUGUUUCAUCCU
RNA 2: GGGAAUGGAUCCACAUCUACGAAUUCGUUAGGAUGAAACAAUUUGGAGAAGCGAAGAUCGGAAGAGCACACGU
B25: target 2 MT 5'PFS GUU 3'PFS CGG (mixed)
RNA 1: CACCCGUGCAAAAUUGCAGGGGUCUAAAACCUUCUCCAAAUUGUUUCAUCCU
RNA 2: GGGAAUGGAUCCACAUCUACGAAUUCGUUAGGAUGAAACAAUUUGGAGAAGCGGAGAUCGGAAGAGCACACGU
B26: target 2 MT 5'PFS AAU 3'PFS AGU (mixed)
RNA 1: CACCCGUGCAAAAUUGCAGGGGUCUAAAACCUUCUCCAAAUUGUUUCAUCCU
RNA 2: GGGAAUGGAUCCACAUCUACGAAUUCAAUAGGAUGAAACAAUUUGGAGAAGAGUAGAUCGGAAGAGCACACGU
B27: target 2 MT 5'PFS UCG 3'PFS CGA (mixed)
RNA 1: CACCCGUGCAAAAUUGCAGGGGUCUAAAACCUUCUCCAAAUUGUUUCAUCCU
RNA 2: GGGAAUGGAUCCACAUCUACGAAUUCUCGAGGAUGAAACAAUUUGGAGAAGCGAAGAUCGGAAGAGCACACGU
B28: target 2 MT 5'PFS AAA 3'PFS ACU (mixed)
RNA 1: CACCCGUGCAAAAUUGCAGGGGUCUAAAACCUUCUCCAAAUUGUUUCAUCCU
RNA 2: GGGAAUGGAUCCACAUCUACGAAUUCAAAAGGAUGAAACAAUUUGGAGAAGACUAGAUCGGAAGAGCACACGU

Target: T1, EsCas13d, nuclease-dead
Test: crRNA (strand 1, pre-loaded); Mg2+; 40 mM Tris-HCl pH 7.5, 150 mM NaCl, 6 mM MgCl2, 1 mM DTT, 0.1% Tween-20, 0.2 mg/ml BSA; 25 C; 10 min per concentration, then washed
Settings: tags: His6-TwinStrep-SUMO cleaved; N-terminal SNAP kept (SNAP-Surface 488); label: 3' end held by stalled T7 RNA polymerase

Row | Binder | Kd [nM]
1 | B1 | 50 ± 16
2 | B2 | 26.6 ± 3
3 | B3 | 10 ± 2.3
4 | B4 | 6.1 ± 1.5
5 | B5 | 4.9 ± 1.2
6 | B6 | 55 ± 16
7 | B7 | 12.4 ± 1.5
8 | B8 | 5.6 ± 1.3
9 | B9 | 12.2 ± 1
10 | B10 | 11.4 ± 0.7
11 | B11 | 12.9 ± 0.9
12 | B12 | 30 ± 6
13 | B13 | 8.8 ± 3.5
14 | B14 | 9.8 ± 2.1
15 | B15 | 4.4 ± 0.7
16 | B16 | 3.3 ± 0.5
17 | B17 | 14.8 ± 2.7
18 | B18 | 9.8 ± 1.1
19 | B19 | 4.4 ± 0.5
20 | B20 | ~70
21 | B21 | 9.6 ± 2.5
22 | B22 | 5.7 ± 0.8
23 | B23 | 7 ± 1.5
24 | B24 | 15.2 ± 1.5
25 | B25 | 17 ± 1.6
26 | B26 | 4.9 ± 0.5
27 | B27 | 33 ± 15
28 | B28 | 9.5 ± 2.9
